Ends that are not written are not given here. * marks the point of attachment. Biotin = O=C1N[C@H]2[C@H](CS[C@H]2CCCCC(=O)*)N1
Key:
Assay in all cases: G' assay (10 uM PL peptide), results of TABLE 7 and TABLE 12
Assay type in all cases: binding
[1] = target: T1, PDZ protein (GST-PDZ fusion) (Homo sapiens, UniProt O15018); settings: PDZ AIPC, PDZ Domain 1
T1 construct: made in house; host or cells: E. coli (DH5alpha, BL21 or JM109)
Description: (§1) Each page of TABLE 7 and 12 includes seven columns. The columns in each table are numbered from left to right such that the left-most column in each table is column 1 and the right-most column in each table is column 7. Thus, the first column in each table is labeled “AVC ID”; this column simply lists an internal reference number used to refer to the carboxyl-terminal amino acids of the PL proteins listed in the second column. […] All PL peptides were biotinylated at the amino-terminus and the sequences of these PL peptides are presented in TABLE 8 (see end of specification).
(§2) This column provides the gene name for the PDZ portion of the GST-PDZ fusion that interacts with the PDZ-ligand to the left. For PDZ domain-containing proteins with multiple domains, the domain number is listed to the right of the PDZ (i.e., in column 5 labeled “PDZ Domain”), and indicates the PDZ domain number when numbered from the amino-terminus to the carboxy-terminus.
(§3) The third column labeled “Peptide Optimal Concentration” in the tables is a number reflective of the binding interaction between the PL protein and PDZ protein. […] The column labeled “Protein Optimal Concentration” refers to the protein concentration used to assay PL interaction (in ug/ml); a ‘0’ is indicative of 5 ug/ml protein concentration; any other value represents the concentration (in ug/ml) used to determine the dissociation constant for a given interaction.
(§4) Finally, the seventh column labeled “Classification” is another measure of the level of binding. In particular, it provides an absorbance value at 450 nm which indicates the amount of PL peptide bound to the PDZ protein. The following numerical values have the following meanings: ‘1’—A450 nm 0-1; ‘2’—A450 nm 1-2; ‘3’—A450 nm 2-3; ‘4’—A450 nm 3-4; ‘5’—A450 nm of 4 more than 2× repeated; ‘0’—A450 nm 0, i.e., not found to interact. Thus, higher numbers indicate stronger interactions.
(§5) For convenience, the assay conditions described in this section are referred to as the “G′ assay” and the “G″ assay,” with the specific conditions described in the preceding section on G assays being referred to as the “G^0 assay.” The “G′ assay” is identical to the “G^0 assay” except at step (2) the peptide concentration is 10 uM instead of 20 uM.

[2] = target: T2, PDZ protein (GST-PDZ fusion) (Homo sapiens, UniProt Q02410)
T2 construct: made in house; host or cells: E. coli (DH5alpha, BL21 or JM109)
T2 sequence (Q02410 1-837): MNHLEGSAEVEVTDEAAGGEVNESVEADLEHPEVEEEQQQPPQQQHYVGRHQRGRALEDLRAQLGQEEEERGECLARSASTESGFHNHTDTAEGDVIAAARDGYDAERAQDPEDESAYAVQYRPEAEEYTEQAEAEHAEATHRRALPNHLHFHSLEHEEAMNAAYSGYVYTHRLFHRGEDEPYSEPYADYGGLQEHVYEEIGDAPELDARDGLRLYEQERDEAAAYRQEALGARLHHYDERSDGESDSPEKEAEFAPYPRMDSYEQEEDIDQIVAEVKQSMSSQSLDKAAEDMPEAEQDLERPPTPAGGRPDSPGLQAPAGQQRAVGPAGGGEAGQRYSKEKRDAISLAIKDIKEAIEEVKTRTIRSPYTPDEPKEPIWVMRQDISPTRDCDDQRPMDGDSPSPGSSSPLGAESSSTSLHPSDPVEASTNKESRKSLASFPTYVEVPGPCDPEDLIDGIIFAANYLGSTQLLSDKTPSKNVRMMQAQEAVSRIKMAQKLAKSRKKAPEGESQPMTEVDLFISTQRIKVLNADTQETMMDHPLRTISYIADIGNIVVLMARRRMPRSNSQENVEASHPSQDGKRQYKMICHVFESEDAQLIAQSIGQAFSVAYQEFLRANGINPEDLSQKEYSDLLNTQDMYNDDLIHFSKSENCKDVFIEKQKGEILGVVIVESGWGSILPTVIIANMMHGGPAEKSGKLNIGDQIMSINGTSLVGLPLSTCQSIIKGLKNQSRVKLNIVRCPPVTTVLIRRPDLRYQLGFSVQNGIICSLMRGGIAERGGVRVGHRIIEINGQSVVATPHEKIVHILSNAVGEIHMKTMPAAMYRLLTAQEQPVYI
Description: as §1, §2, §3, §4, §5

[3] = target: T3, PDZ protein (GST-PDZ fusion) (Homo sapiens, UniProt Q6P0Q8)
T3 construct: made in house; host or cells: E. coli (DH5alpha, BL21 or JM109)
Description: as §1, §2, §3, §4, §5

[4] = target: T4, PDZ protein (GST-PDZ fusion) (Homo sapiens, UniProt O75970)
T4 construct: made in house; host or cells: E. coli (DH5alpha, BL21 or JM109)
Description: as §1, §2, §3, §4, §5

[5] = target: T5, PDZ protein (GST-PDZ fusion) (Homo sapiens, UniProt Q8NI35); settings: PDZ INADL, PDZ Domain 8
T5 construct: made in house; host or cells: E. coli (DH5alpha, BL21 or JM109)
Description: as §1, §2, §3, §4, §5

[6] = target: T6, PDZ protein (GST-PDZ fusion) (Homo sapiens, UniProt Q12923); settings: PDZ PTPL-1, PDZ Domain 2
T6 construct: made in house; host or cells: E. coli (DH5alpha, BL21 or JM109)
Description: as §1, §2, §3, §4, §5

[7] = target: T7, PDZ protein (GST-PDZ fusion) (Homo sapiens, UniProt Q14160); settings: PDZ KIAA0147, PDZ Domain 1
T7 construct: made in house; host or cells: E. coli (DH5alpha, BL21 or JM109)
Description: as §1, §2, §3, §4, §5

[8] = target: T8, PDZ protein (GST-PDZ fusion) (Homo sapiens, UniProt Q5TCQ9); settings: PDZ KIAA1634, PDZ Domain 2
T8 construct: made in house; host or cells: E. coli (DH5alpha, BL21 or JM109)
T8 sequence (Q5TCQ9 1-1481): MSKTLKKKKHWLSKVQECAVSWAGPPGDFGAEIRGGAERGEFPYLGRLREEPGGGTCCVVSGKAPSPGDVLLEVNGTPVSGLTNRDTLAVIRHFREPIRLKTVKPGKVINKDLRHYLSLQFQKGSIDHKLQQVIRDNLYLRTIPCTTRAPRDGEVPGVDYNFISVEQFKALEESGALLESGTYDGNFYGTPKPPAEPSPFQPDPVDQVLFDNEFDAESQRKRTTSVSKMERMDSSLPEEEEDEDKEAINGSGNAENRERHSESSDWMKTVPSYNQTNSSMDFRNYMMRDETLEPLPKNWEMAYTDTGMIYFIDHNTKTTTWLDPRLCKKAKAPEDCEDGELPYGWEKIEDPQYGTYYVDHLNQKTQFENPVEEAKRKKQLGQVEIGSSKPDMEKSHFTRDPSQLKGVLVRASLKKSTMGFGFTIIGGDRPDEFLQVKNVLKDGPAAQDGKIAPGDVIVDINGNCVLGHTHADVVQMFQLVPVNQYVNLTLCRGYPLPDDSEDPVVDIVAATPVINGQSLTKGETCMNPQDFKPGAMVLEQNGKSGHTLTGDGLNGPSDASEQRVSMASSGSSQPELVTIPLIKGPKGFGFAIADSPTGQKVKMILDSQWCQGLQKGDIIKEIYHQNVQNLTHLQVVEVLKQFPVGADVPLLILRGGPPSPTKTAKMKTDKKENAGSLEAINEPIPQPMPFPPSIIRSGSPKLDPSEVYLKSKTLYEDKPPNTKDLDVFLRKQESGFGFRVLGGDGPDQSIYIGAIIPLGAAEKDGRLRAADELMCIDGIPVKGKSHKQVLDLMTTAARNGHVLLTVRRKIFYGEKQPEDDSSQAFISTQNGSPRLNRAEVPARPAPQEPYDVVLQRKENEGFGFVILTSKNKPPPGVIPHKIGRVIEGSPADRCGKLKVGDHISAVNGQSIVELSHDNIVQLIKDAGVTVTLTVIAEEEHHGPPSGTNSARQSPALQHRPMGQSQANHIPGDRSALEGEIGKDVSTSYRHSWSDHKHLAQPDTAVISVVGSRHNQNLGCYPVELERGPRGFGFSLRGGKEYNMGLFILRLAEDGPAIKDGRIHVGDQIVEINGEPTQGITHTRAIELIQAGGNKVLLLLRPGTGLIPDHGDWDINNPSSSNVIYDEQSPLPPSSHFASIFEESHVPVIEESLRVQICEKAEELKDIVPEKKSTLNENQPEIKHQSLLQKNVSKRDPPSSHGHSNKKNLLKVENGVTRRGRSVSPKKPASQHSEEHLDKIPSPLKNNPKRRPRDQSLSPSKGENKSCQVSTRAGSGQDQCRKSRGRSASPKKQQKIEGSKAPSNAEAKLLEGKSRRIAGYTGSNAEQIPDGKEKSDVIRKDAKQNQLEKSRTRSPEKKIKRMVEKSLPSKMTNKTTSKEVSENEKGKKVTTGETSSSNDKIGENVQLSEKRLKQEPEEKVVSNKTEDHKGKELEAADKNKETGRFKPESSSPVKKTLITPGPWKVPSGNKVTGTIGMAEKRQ
Description: as §1, §2, §3, §4, §5

[9] = PDZ KIAA807, PDZ Domain not given

T3 sequence (Q6P0Q8 whole entry, the tested form may be a part): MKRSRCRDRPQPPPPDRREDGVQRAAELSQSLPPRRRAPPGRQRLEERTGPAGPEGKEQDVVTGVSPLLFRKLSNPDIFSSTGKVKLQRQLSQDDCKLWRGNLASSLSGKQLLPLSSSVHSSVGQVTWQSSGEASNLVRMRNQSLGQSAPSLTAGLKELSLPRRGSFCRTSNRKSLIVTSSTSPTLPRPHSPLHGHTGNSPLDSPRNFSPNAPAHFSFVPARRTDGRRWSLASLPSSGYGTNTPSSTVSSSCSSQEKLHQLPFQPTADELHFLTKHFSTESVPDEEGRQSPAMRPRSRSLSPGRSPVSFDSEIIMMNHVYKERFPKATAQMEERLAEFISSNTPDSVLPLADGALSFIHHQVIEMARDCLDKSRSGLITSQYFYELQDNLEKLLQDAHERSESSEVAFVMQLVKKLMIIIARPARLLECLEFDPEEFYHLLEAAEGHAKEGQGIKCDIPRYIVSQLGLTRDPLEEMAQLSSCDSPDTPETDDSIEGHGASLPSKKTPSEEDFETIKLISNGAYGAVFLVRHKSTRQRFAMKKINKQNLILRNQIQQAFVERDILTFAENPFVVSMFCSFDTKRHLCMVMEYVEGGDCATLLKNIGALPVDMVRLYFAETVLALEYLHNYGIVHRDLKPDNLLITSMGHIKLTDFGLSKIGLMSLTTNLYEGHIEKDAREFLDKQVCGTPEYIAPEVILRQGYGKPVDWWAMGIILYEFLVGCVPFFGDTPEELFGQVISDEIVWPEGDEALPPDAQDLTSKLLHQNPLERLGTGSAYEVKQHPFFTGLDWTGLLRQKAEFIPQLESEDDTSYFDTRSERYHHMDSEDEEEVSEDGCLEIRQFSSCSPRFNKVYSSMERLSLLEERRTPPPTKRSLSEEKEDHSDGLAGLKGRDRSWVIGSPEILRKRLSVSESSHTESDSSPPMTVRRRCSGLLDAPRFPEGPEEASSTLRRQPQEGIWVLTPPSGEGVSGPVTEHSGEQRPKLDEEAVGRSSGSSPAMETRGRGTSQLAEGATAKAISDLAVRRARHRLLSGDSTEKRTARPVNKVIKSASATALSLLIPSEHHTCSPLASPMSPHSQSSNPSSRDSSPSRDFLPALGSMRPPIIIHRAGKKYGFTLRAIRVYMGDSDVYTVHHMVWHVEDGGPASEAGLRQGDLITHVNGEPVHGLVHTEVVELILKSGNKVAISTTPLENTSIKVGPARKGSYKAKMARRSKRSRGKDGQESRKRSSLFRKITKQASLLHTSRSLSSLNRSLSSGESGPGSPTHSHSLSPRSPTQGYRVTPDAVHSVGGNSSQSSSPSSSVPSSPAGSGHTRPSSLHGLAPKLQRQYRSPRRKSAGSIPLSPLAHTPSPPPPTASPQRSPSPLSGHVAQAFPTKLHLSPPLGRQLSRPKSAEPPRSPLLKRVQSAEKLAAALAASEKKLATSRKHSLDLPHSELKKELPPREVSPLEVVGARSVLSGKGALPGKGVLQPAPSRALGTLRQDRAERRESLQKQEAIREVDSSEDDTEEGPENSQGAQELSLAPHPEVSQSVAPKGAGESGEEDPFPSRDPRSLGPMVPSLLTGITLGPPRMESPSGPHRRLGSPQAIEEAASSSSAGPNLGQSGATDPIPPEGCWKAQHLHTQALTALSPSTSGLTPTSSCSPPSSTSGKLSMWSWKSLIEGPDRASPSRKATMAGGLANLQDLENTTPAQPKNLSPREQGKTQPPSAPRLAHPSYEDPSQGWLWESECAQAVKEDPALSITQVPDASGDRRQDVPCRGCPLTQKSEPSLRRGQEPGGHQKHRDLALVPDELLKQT
T4 sequence (O75970 whole entry, the tested form may be a part): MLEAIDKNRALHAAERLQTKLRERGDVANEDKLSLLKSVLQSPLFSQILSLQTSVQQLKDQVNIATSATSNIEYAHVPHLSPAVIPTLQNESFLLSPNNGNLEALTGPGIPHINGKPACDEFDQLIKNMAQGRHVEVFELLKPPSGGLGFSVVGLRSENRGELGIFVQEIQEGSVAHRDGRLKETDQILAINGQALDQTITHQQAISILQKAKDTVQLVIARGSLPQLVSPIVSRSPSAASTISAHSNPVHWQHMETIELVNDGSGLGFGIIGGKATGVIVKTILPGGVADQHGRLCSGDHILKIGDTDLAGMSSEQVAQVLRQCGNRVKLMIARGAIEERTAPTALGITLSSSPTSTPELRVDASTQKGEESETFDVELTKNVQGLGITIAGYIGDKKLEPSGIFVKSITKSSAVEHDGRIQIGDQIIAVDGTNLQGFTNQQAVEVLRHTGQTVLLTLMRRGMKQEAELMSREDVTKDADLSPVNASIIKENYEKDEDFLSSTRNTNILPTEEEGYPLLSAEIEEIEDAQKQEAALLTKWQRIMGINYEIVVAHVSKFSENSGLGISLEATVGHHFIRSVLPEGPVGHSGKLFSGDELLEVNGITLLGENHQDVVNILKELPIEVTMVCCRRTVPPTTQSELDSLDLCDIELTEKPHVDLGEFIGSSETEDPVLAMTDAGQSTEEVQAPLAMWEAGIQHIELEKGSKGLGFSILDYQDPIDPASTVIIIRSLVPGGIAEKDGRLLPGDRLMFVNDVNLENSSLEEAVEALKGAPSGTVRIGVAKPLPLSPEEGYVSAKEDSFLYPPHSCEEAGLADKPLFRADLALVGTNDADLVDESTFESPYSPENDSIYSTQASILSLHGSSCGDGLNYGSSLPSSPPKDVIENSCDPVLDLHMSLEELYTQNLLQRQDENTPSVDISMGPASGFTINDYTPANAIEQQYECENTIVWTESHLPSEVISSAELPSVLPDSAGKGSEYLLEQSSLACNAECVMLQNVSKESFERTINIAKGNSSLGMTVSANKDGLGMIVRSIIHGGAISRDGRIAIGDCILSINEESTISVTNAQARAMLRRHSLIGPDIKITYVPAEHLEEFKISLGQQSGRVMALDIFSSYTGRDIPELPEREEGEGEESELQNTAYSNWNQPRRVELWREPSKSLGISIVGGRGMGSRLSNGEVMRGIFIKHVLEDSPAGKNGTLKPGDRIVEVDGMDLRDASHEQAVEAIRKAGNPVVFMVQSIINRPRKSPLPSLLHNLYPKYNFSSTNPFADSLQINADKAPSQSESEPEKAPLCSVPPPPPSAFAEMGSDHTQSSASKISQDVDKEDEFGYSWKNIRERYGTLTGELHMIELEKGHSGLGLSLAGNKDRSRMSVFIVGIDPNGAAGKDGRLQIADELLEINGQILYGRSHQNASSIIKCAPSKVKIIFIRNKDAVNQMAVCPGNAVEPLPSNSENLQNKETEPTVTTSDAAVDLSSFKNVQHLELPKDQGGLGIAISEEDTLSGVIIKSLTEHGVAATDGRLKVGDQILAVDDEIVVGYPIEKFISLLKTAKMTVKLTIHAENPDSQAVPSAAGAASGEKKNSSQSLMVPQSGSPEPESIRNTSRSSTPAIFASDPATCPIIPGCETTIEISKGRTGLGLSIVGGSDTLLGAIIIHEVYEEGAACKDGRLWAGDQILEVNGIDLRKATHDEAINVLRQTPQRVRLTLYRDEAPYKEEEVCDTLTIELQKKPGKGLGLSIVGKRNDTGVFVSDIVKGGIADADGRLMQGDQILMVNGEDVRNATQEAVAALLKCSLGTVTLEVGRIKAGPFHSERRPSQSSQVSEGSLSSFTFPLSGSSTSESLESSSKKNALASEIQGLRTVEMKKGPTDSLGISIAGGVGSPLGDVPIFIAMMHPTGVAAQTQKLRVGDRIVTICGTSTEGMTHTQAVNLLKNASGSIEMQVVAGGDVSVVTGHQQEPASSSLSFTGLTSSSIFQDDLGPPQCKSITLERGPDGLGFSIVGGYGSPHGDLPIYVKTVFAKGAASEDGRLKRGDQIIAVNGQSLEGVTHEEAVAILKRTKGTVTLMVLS

**Q.** What does the source list for “VISKATPALPTVSISSSAEV (Biotin-VISKATPALPTVSISSSAEV) [Clasp-1]”?
**A.** Classification [1]: 1 (A450 nm 0-1); Classification ([2]; PDZ Mint 1, PDZ Domain 1, 2): 1 (A450 nm 0-1); Classification ([3]; PDZ KIAA0807(S), PDZ Domain 1): 1 (A450 nm 0-1); Classification [3, 9]: 1 (A450 nm 0-1)

**Q.** Which results are given for “ENLELPVNPSSVVSERISSV (Biotin-ENLELPVNPSSVVSERISSV) [serotonin receptor 5-HT-2C]”?
**A.** Classification ([4]; PDZ MUPP-1, PDZ Domain 10): 1 (A450 nm 0-1); Classification [5]: 1 (A450 nm 0-1)

**Q.** With “SYPTPRPYPKPAPSSGKDYV (Biotin-SYPTPRPYPKPAPSSGKDYV) [claudin 1]” as the sequence, how does the Classification ([2]; PDZ Mint 1, PDZ Domain 2) read?
**A.** 1 (A450 nm 0-1)

**Q.** And the Classification [5]?
**A.** 1 (A450 nm 0-1)

**Q.** For “DGGARTEDEVQSYPSKHDYV (Biotin-DGGARTEDEVQSYPSKHDYV) [claudin 18]”, which Classification ([2]; PDZ Mint 1, PDZ Domain 1, 2) is on record?
**A.** 1 (A450 nm 0-1)

**Q.** For “TALRIKKTLAKMVESQDVKI (Biotin-TALRIKKTLAKMVESQDVKI) [bone morphogenetic protein receptor]”, which Classification ([4]; PDZ MUPP-1, PDZ Domain 3) is on record?
**A.** 1 (A450 nm 0-1)

**Q.** What about the Classification ([4]; PDZ MUPP-1, PDZ Domain 7) of the same sequence?
**A.** 1 (A450 nm 0-1)

**Q.** What about the Classification ([4]; PDZ MUPP-1, PDZ Domain 9) of the same sequence?
**A.** 1 (A450 nm 0-1)

**Q.** What about the Classification ([3]; PDZ KIAA0807(S), PDZ Domain 1) of the same sequence?
**A.** 1 (A450 nm 0-1)

**Q.** “PYQSQGFSTEEDEDEQVSAV (Biotin-PYQSQGFSTEEDEDEQVSAV) [RA-GEF (ras/rap1A-assoc-GEF)]” was tested. Which Classification [6] did it give?
**A.** 4 (A450 nm 3-4)

**Q.** What about the Classification [7] of the same sequence?
**A.** 1 (A450 nm 0-1)

**Q.** And the Classification [8]?
**A.** 2 (A450 nm 1-2)

**Q.** Which Classification ([2]; PDZ Mint 1, PDZ Domain 1, 2) does the source give for “KAGYRAPRSYPKSNSSKEYV (Biotin-KAGYRAPRSYPKSNSSKEYV) [claudin 7]” here?
**A.** 4 (A450 nm 3-4)

**Q.** What does the source list for “SPQPDSTDNDDYDDISAA (Biotin-SPQPDSTDNDDYDDISAA) [CD6]”?
**A.** Classification ([3]; PDZ KIAA0807(S), PDZ Domain 1): 1 (A450 nm 0-1); Classification [3, 9]: 1 (A450 nm 0-1)

**Q.** How did the Classification ([2]; PDZ Mint 1, PDZ Domain 1, 2) turn out when “LGYSIPSRSGASGLDKRDYV (Biotin-LGYSIPSRSGASGLDKRDYV) [claudin 9]” was run?
**A.** 1 (A450 nm 0-1)

Source: patent US20050282743A1, “Molecular interactions in cells” (Arbor Vita Corporation, priority 2001, published 2005)
